Read-outs that look alike come from different tables or passages of the source.
Assays:
AAV2 [1] = assay: AAV2 (AV2Luc) transduction of HeLa cells, luciferase activity; type: cell-based; settings: for inhibition of AAV2 transduction: DPI 10 μM
Protocol: (§1) Recombinant type-2 adeno-associated viruses encoding luciferase (AV2Luc) or factor VIII (AV2FVIII) transgenes were used for infection of different cell types. HeLa and IB3 cells were cultured in DMEM supplemented with 10% fetal bovine serum (FBS) and antibiotics. Nox 1 and Nox2 knockout and wild-type (wt) littermate control mouse dermal fibroblasts were generated from newborn mice as described in Bosu et al. (2001) and below. For all infections, viruses were applied to cells in serum-free DMEM, and an equal volume of 20% FBS/DMEM was added at 2 hours post-infection.
(§2) In studies evaluating viral entry, cells were incubated with 1,000 particles/cell of AV2FVIII at 4° C. for 30 minutes prior to removing virus, washing cells, and shifting cells to 37° C. Cells were then incubated for the indicated times and postnuclear supernatants (PNS) were prepared for analysis of intracellular AAV2. Taqman PCR was used to quantify the abundance of viral genomes in different subcellular fractions following infection using primer sets and methods described in Ding et al. (2006). When proteasome inhibitors were added to induce AAV2 transduction, LLnL (Boston Biochem, Cambridge, Mass.) and/or doxorubicin (Calbiochem, San Diego, Calif.), were present in the medium at concentrations of 40 μM and 5 μM, respectively. Modulation of endosomal ROS was achieved by adding 1 mg/mL of purified bovine Cu/Zn superoxide dismutase (Cu/ZnSOD) (Oxis Research, Portland, Oreg.) and/or catalase (Sigma-Aldrich, St. Louis, Mo.) to the medium which was then applied to cells 20 minutes prior to viral infections unless indicated otherwise. SOD and/or catalase remained in the medium during infection unless otherwise indicated.

AAV2 capsid [2] = molecular target: T1, AAV2 capsid (Adeno-associated virus 2, UniProt P03135); settings: 100 nM H2O2
T1 sequence (P03135 whole entry): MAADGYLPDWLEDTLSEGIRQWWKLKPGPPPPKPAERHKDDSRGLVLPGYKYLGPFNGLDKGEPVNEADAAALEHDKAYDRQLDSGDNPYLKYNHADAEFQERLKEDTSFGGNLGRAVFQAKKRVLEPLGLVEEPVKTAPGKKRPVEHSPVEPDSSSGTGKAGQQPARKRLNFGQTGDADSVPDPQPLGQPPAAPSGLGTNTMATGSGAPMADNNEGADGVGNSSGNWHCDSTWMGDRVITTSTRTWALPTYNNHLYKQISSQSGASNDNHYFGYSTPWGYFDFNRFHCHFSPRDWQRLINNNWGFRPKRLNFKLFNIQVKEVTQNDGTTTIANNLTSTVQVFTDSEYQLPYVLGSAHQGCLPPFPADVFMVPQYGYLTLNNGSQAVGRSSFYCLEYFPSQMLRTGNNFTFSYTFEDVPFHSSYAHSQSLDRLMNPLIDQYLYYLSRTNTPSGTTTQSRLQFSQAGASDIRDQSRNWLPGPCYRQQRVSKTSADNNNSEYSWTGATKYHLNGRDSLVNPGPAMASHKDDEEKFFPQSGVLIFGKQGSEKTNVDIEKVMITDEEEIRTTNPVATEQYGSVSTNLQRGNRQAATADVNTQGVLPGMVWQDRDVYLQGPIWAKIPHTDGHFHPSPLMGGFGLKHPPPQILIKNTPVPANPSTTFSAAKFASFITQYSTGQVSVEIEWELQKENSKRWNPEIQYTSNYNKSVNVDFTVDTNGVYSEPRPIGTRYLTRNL
T1 sequence (P03135 1-598 isoform P03135-2): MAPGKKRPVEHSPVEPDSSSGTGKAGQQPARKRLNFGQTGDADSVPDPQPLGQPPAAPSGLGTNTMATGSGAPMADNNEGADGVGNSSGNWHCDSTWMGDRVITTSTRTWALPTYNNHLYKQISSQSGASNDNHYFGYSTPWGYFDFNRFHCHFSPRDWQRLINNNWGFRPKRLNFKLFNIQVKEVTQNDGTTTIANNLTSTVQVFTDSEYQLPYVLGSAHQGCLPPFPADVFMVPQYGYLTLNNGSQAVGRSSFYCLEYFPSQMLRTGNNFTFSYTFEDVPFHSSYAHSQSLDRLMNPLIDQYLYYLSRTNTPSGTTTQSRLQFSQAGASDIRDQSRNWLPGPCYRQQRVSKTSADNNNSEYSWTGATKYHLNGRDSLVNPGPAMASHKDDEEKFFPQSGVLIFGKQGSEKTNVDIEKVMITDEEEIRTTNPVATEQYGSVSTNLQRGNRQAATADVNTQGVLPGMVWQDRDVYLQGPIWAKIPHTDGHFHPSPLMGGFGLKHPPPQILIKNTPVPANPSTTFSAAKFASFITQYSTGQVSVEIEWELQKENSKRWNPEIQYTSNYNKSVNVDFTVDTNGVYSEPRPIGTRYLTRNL
T1 sequence (P03135 203-735): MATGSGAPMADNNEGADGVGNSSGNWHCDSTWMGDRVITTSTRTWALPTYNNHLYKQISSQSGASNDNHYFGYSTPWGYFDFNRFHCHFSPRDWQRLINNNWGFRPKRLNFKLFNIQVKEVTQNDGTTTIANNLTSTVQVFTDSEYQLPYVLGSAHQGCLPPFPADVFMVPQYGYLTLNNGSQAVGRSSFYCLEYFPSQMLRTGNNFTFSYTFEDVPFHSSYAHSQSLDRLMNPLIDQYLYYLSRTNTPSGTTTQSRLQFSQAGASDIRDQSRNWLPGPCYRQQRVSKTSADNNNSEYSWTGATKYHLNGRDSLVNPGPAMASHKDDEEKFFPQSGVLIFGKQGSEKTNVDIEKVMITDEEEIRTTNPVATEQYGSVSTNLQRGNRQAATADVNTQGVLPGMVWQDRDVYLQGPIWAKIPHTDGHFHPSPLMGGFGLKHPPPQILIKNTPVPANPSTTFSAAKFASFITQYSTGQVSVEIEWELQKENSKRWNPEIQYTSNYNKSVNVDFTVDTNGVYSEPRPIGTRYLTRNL
Protocol: Subtle changes in capsid structure of the virion following heat denaturation or exposure to H2O2 was assayed using MALDI-TOF mass spectrometry following trypsin digestion. Briefly, 10^10 AAV2 particles were treated with H2O2 (which was then removed by dialysis for 1 hour against 20 mM Tris, 20 mM NaCl, pH 8.0) or heated to 70° C. as described above and then incubated with 500 ng of porcine trypsin in 25 mM NH4HCO3 (pH 8.0) at 37° C. for 16 hours. The digested products were then sequentially incubated with 10 mM DTT and 55 mM of iodoacetamide to reduce and modify cysteine residues. 1/20 of the original sample was assayed on a Bruker Biflex III MALDI-TOF MS. For the analysis of cysteine modification, the theoretical m/z values of peptides containing individual cysteines were predicted without modification, with iodoacetamide modification, and with different oxidative (sulfenic, sulfinic, or sulfonic) modifications. Spectra were evaluated using ExPASy (http://us.expasy.org/tools/peptide-mass.html) and compared to the theoretical spectra for various VP proteins.

AAV2 capsid [3] = molecular target: T1, AAV2 capsid; settings: following 100 nM H2O2 treatment; data not shown
AAV2 [4] = settings: Sanlioglu et al., 2004; 1999; cited from earlier work
AAV2 capsid PLA2 = AAV2 capsid PLA2 (Adeno-associated virus 2, UniProt P03135)
Chain of AAV2 capsid PLA2 (P03135 whole entry): as the sequence (P03135 whole entry) above
Chain of AAV2 capsid PLA2 (P03135 1-598 isoform P03135-2 partner): as the sequence (P03135 1-598 isoform P03135-2) above
Chain of AAV2 capsid PLA2 (P03135 203-735 partner limits assumed): as the sequence (P03135 203-735) above
Protocol: 10^10 purified AV2FVIII virions were treated with various conditions to activate PLA2 activity in the capsid of purified virions. This included pre-incubation of virus with various concentration of H2O2 for 15 minutes at 37° C. or partial heat denaturation at 70° C. for 2 minutes. Catalase was added to virus treated with H2O2 at the end of the treatment period to scavenge H2O2 prior to the PLA2 activity assay. PLA2 activity of virions was determined by the release of radioactive fatty acid from L-3-phosphatidylcholine (PC), 1,2-di[1-^14C]oleoyl using the protocol described by Zadori et al. (2001).

AAV2 [5] = assay: AAV2 (AV2Luc) transduction of Nox1/Nox2 WT and KO primary mouse dermal fibroblasts (PMDF); type: cell-based; settings: catalase 1 mg/ml
Protocol: as §1
(§3) In studies evaluating the efficiency of viral transduction, AV2Luc virus was used at a multiplicity of infection (MOI) equal to 1,000 particles/cell, and luciferase activity was measured at 24 hours post-infection. In studies evaluating viral entry, cells were incubated with 1,000 particles/cell of AV2FVIII at 4° C. for 30 minutes prior to removing virus, washing cells, and shifting cells to 37° C. Cells were then incubated for the indicated times and postnuclear supernatants (PNS) were prepared for analysis of intracellular AAV2. Taqman PCR was used to quantify the abundance of viral genomes in different subcellular fractions following infection using primer sets and methods described in Ding et al. (2006). […]

AAV2 [6] = assay: AAV2 (AV2Luc) transduction of IB3 cells, luciferase activity; type: cell-based
Protocol: as §1, §3

NADPH oxidase = molecular target: T2, NADPH oxidase (Homo sapiens, UniProt P04839); assay: NADPH-dependent superoxide production in endosomal (vesicular) fractions, lucigenin-based assay; type: biochemical; settings: HeLa cells; 20 minutes following infection; catalase 1 mg/mL
T2 construct: endogenous in cells; host or cells: iodixanol-fractionated endosomal (vesicular) fractions of HeLa and IB3 cells after AAV2 infection
Protocol: Vesicular fractionation was performed using a previously described protocol (Li et al., 2006b) with minor modifications. Briefly, cells were harvested by scraping and washing twice in 4° C. phosphate-buffered saline (PBS). Cells were then pelleted and resuspended on ice in 1 mL of pre-cooled (4° C.) homogenization buffer (0.25 M sucrose, 10 mM triethanolamine, 1 mM EDTA, 1 mM PMSF, and 100 μg/mL aprotinin) and homogenized using a nitrogen decompression vessel (Parr Instrument, Moline, Ill.). Methods for generating PNS, iodixanol isolation of vesicular fractions, sample collection, quality control, and Nox activity assays were performed as described in Li et al. (2006b).
In brief, vesicular fractions were confirmed by Western blot to contain known endosomal Rab proteins and be devoid of markers for plasma membrane and mitochondria. Nox activities were analyzed by measuring the rate of .O2— generation using a chemiluminescent, lucigenin-based system. […] The reaction was initiated by the addition of 100 μM of NADPH (Sigma-Aldrich, St. Louis, Mo.) and changes in luminescence were measured over the course of 3 min (5 readings/sec). The slope of the luminescence curve (relative light units [RLU] per minute) (r>0.95) was used to calculate the rate of .O2^− formation as an index of NADPH oxidase activity.

AAV2 [7] = assay: Virion endosomal escape assay (30% iodixanol cushion) in HeLa cells; type: cell-based; settings: 1 hour following infection, catalase loading
Protocol: A protocol using a 30% iodixanol cushion was developed to separate AAV2 virions in the cytoplasm from those inside endosomes. Briefly, HeLa cells were incubated with 1,000 particles/cell of AAV2 at 4° C. for 30 minutes before removing virus, washing cells, and shifting cells to 37° C. Cells were then incubated for the indicated times and PNS were prepared. A total volume of 500 μl PNS was then loaded on the top of 250 μl 30% iodixanol, followed by centrifugation at 100,000×g for 1 hour. Viral genome within the supernatant and pellet were quantified by real-time PCR.

AAV2 [8] = assay: Viral uptake/accumulation, viral genomes quantified by Taqman PCR, HeLa cells; type: cell-based
Protocol: as §2, with “In studies evaluating the efficiency of viral transduction, AV2Luc virus was used at a multiplicity of infection (MOI) equal to 1,000 particles/cell, and luciferase activity was measured at 24 hours post-infection. In” for “In”

[9] = HeLa cells, antimycin A 10 μM, L-NMMA 5 mM, rotenone 2 nM, 16 hours post-infection

What does the source list for `c1ccc2c(c1)[I+]c1ccccc1-2` [DPI]?
inhibition of AAV2 transduction (AAV2 [1]; HeLa cells, absence of proteasome inhibitors, 16 hours post-infection): 100 fold; inhibition of AAV2 transduction (AAV2 [1]; HeLa cells, presence of proteasome inhibitors, 16 hours post-infection): 1000 fold

With `OO` [H2O2, hydrogen peroxide] as the molecule, how does the “tryptic digestion of AAV2 virions after pre-treatment” value (AAV2 capsid [2]) read?
Its value is “significantly enhanced tryptic digestion”.

And the “number of cysteines that form sulfonic acid in the capsid” value (AAV2 capsid [3])?
The value was under 5%.

And the “effect on AAV2 transduction” value (AAV2 [4])?
Its value is “increase AAV2 transduction”.

And the “PLA2 activity of H2O2-treated virions” value (AAV2 capsid PLA2)?
The value was “greater than that seen following partial virion heat denaturation”.

What about the “optimal concentration of H2O2 for PLA2 activation” value (AAV2 capsid PLA2) of the same molecule?
Its value is 100 nM.

For `CC(=O)O.CNC(=N)NCCC[C@H](N)C(=O)O` [L-NMMA, N^G-monomethyl-L-arginine acetate], which “effect on AAV2 transduction” value (AAV2 [1]; [9]) is on record?
Its value is “did not significantly affect”.

For `CC(=O)N[C@@H](CS)C(=O)O` [NAC, N-acetyl-L-cysteine], which “effect on AAV2 transduction” value (AAV2 [4]) is on record?
The value was “inhibit transduction”.

For `C=C(C)[C@H]1Cc2c(ccc3c2O[C@@H]2COc4cc(OC)c(OC)cc4[C@@H]2C3=O)O1` [rotenone], which “effect on AAV2 transduction” value (AAV2 [1]; [9]) is on record?
The value was “did not significantly affect”.

For “SOD1: purified bovine Cu/Zn superoxide dismutase (Oxis Research)”, which “effect on AAV2 transduction” value (AAV2 [1]; endosomal loading with purified SOD1, absence or presence of proteasome inhibitors) is on record?
Its value is “failed to alter”.

Which “effect on AAV2 transduction” value (AAV2 [1]; [9]) does the source give for antimycin A here?
Its value is “did not significantly affect”.

B1: catalase: purified bovine catalase (Sigma-Aldrich) loaded into endosomes to clear H2O2 (protein, UniProt P00432 2-527, looked up)
Catalase: ADNRDPASDQMKHWKEQRAAQKPDVLTTGGGNPVGDKLNSLTVGPRGPLLVQDVVFTDEMAHFDRERIPERVVHAKGAGAFGYFEVTHDITRYSKAKVFEHIGKRTPIAVRFSTVAGESGSADTVRDPRGFAVKFYTEDGNWDLVGNNTPIFFIRDALLFPSFIHSQKRNPQTHLKDPDMVWDFWSLRPESLHQVSFLFSDRGIPDGHRHMNGYGSHTFKLVNANGEAVYCKFHYKTDQGIKNLSVEDAARLAHEDPDYGLRDLFNAIATGNYPSWTLYIQVMTFSEAEIFPFNPFDLTKVWPHGDYPLIPVGKLVLNRNPVNYFAEVEQLAFDPSNMPPGIEPSPDKMLQGRLFAYPDTHRHRLGPNYLQIPVNCPYRARVANYQRDGPMCMMDNQGGAPNYYPNSFSAPEHQPSALEHRTHFSGDVQRFNSANDDNVTQVRTFYLKVLNEEQRKRLCENIAGHLKDAQLFIQKKAVKNFSDVHPEYGSRIQALLDKYNEEKPKNAVHTYVQHGSHLSAREKANL
Which “effect on AAV2 transduction” value (AAV2 [5]; Nox1+/+ and Nox1-/- PMDFs, baseline and proteasome inhibitor induced) does the source give for B1 here?
The value was “inhibited transduction”.

And the “effect on AAV2 transduction” value (AAV2 [5]; Nox2-/- PMDFs)?
Its value is “did not significantly alter”.

And the “effect on ability of proteasome inhibitors to enhance AAV2 transduction” value (AAV2 [1]; HeLa cells, 40 μM LLnL and 5 μM doxorubicin)?
The value was “completely abolished”.

And the “effect on AAV2 transduction (luciferase transgene expression)” value (AAV2 [1]; HeLa cells, 1 mg/mL catalase endosomal loading)?
Its value is “significantly inhibited”.

What about the “ability of catalase loading to inhibit viral transduction” value (AAV2 [1]; catalase added by 30 minutes post-infection) of the same molecule?
The value was “significantly declined”.

What about the “ability of catalase loading to inhibit viral transduction” value (AAV2 [1]; catalase added by 60 minutes post-infection) of the same molecule?
The value was “completely absent”.

What about the “decrease of rAAV2 transduction by catalase loading” value (AAV2 [1]; endosomal catalase loading, cell type not stated in b12) of the same molecule?
The value was “about 80 fold”.

And the “effect on ability of proteasome inhibitors to enhance AAV2 transduction” value (AAV2 [6]; 40 μM LLnL and 5 μM doxorubicin)?
Its value is “completely abolished”.

What about the “effect on AAV2 transduction (luciferase transgene expression)” value (AAV2 [6]; 1 mg/mL catalase endosomal loading) of the same molecule?
Its value is “significantly inhibited”.

What about the “effect on Nox activity in the endosomal compartment” value (NADPH oxidase) of the same molecule?
The value was “did not affect”.

What about the “inhibition of viral escape from endosomes” value (AAV2 [7]) of the same molecule?
Its value is “about 3 fold”.

And the “effect on viral uptake” value (AAV2 [8]; 1 mg/mL catalase)?
The value was “not due to impaired viral uptake”.

And the “effect on viral accumulation in the endosomal compartment” value (AAV2 [8]; 20 minutes following infection, catalase 1 mg/mL)?
The value was “did not affect”.

Reference: patent publication US20080261201A1, “Methods and compounds to alter virus infection” (priority 2006, published 2008)
